± gives the uncertainty stated by the source.
B1: Cytoplasmic polyadenylation element-binding protein 2, residues 513 to 575; numbered along this chain, Q7Z5Q1 (parent)
chain: KRVEVKPYVLDDQMCDECQGARCGGKFAPFFCANVTCLQYYCEFCWANIHSRAGREFHKPLVK
B2: POU domain, class 3, transcription factor 1, residues 247 to 324; numbered along this chain, Q03052 (parent)
chain: EDAPSSDDLEQFAKQFKQRRIKLGFTQADVGLALGTLYGNVFSQTTICRFEALQLSFKNMCKLKPLLNKWLEETDSSS

Variants of: B1
Assay: abundance fitness (aPCA) (normalised: wild type 0, dead -1); higher = more abundant; growth selection in yeast, the domain comes from the species named
Details: Homo sapiens

Abundance fitness: each site, then its substitutions
Y8: W -0.091 ± 0.059, K 0.121 ± 0.058, G 0.154 ± 0.042, N 0.13 ± 0.075, C -0.115 ± 0.08, S 0.121 ± 0.044, P 0.075 ± 0.047, V -0.086 ± 0.044, M -0.365 ± 0.087, A 0.01 ± 0.04, E 0.18 ± 0.053, H -0.036 ± 0.079, Q 0.012 ± 0.06, I -0.026 ± 0.07, T -0.026 ± 0.059, R 0.064 ± 0.039
K6: R -0.128 ± 0.034, S -0.085 ± 0.039, L -0.297 ± 0.037, N 0.006 ± 0.063, H -0.225 ± 0.06, Y -0.382 ± 0.1, Q -0.083 ± 0.044, F -0.337 ± 0.066, D 0.029 ± 0.065, E -0.069 ± 0.048, G -0.017 ± 0.033, P -0.102 ± 0.046, W -0.315 ± 0.042, V -0.104 ± 0.034, M -0.028 ± 0.049, A -0.045 ± 0.038
D11: N -0.028 ± 0.05, A -0.122 ± 0.045, P -0.183 ± 0.083, C -0.205 ± 0.067, V -0.075 ± 0.034, G -0.041 ± 0.043, E 0.084 ± 0.05, R -0.068 ± 0.05, Q -0.037 ± 0.069, T -0.239 ± 0.063, L -0.27 ± 0.041, M -0.259 ± 0.056, I 0.022 ± 0.072, W -0.238 ± 0.055, S -0.125 ± 0.05, F -0.149 ± 0.085, Y -0.112 ± 0.096
P7: R -0.125 ± 0.033, I -1.07 ± 0.32, W -0.622 ± 0.058, K 0.046 ± 0.072, Q -0.098 ± 0.062, V -0.735 ± 0.083, G -0.141 ± 0.037, H -0.086 ± 0.072, T -0.014 ± 0.05, A -0.227 ± 0.056, D 0.132 ± 0.097, M -0.259 ± 0.064, E 0.051 ± 0.059, F -0.413 ± 0.18, L -0.579 ± 0.058, Y -0.405 ± 0.098, N 0.01 ± 0.086
D12: T -0.168 ± 0.051, P -0.107 ± 0.055, K 0.012 ± 0.082, C -0.305 ± 0.18, N -0.019 ± 0.049, H 0.049 ± 0.056, G -0.066 ± 0.051, V -0.221 ± 0.058, W -0.225 ± 0.05, L -0.288 ± 0.047, R -0.182 ± 0.045, F -0.312 ± 0.06, A -0.117 ± 0.061, S -0.146 ± 0.049, Q 0.052 ± 0.071, M -0.189 ± 0.059, Y -0.273 ± 0.056
V5: F -0.098 ± 0.081, Y -0.141 ± 0.055, C -0.074 ± 0.042, P 0.167 ± 0.053, I -0.113 ± 0.057, S 0.105 ± 0.038, W -0.247 ± 0.052, A -0.088 ± 0.052, R 0.005 ± 0.041, E 0.144 ± 0.064, M -0.011 ± 0.073, T 0.006 ± 0.044, Q 0.077 ± 0.068, N 0.048 ± 0.086, L -0.136 ± 0.039
V9: N 0.007 ± 0.12, D 0.083 ± 0.064, Q 0.096 ± 0.057, A -0.02 ± 0.043, R -0.14 ± 0.04, G -0.087 ± 0.037, L -0.043 ± 0.04, H 0.051 ± 0.099, S 0.058 ± 0.039, I -0.022 ± 0.042, E -0.022 ± 0.052, T -0.036 ± 0.062, C -0.002 ± 0.071, K -0.003 ± 0.055, M 0.049 ± 0.034, Y -0.212 ± 0.07, P -0.055 ± 0.052
Q13: H -0.087 ± 0.084, R 0.003 ± 0.04, S -0.144 ± 0.041, N -0.131 ± 0.086, L -0.291 ± 0.036, I -0.197 ± 0.096, W -0.372 ± 0.055, T -0.087 ± 0.045, V -0.083 ± 0.047, G -0.378 ± 0.05, A -0.017 ± 0.048, C -0.146 ± 0.063, F -0.229 ± 0.073, M -0.056 ± 0.049, P -0.211 ± 0.049, K 0.161 ± 0.058, Y -0.217 ± 0.087, E -0.358 ± 0.062
K1: Q -0.248 ± 0.09, E 0.038 ± 0.063, D -0.01 ± 0.066, R -0.216 ± 0.052, G -0.218 ± 0.053, Y -0.236 ± 0.088, I -0.215 ± 0.21, L -0.417 ± 0.074, M -0.184 ± 0.084, F -0.292 ± 0.11, N 0.143 ± 0.078, T -0.036 ± 0.078, V -0.509 ± 0.087, C -0.276 ± 0.076, W -0.985 ± 0.17, A -0.32 ± 0.11, H -0.599 ± 0.23
V3: R -0.1 ± 0.04, G -0.1 ± 0.033, T 0.167 ± 0.063, E 0.084 ± 0.043, L -0.156 ± 0.043, Q 0.11 ± 0.056, H -0.039 ± 0.079, I -0.041 ± 0.052, K 0.112 ± 0.063, N -0.207 ± 0.096, Y -0.37 ± 0.12, P -0.028 ± 0.056, A 0.059 ± 0.055, M -0.091 ± 0.077, D 0.107 ± 0.071, S 0.013 ± 0.042, C -0.945 ± 0.13, F -0.197 ± 0.08
L10: E 0.076 ± 0.047, Q 0.121 ± 0.051, Y -0.193 ± 0.12, W 0.056 ± 0.057, H -0.227 ± 0.18, N 0.005 ± 0.13, I -0.062 ± 0.083, G 0.032 ± 0.052, K 0.1 ± 0.062, P -0.028 ± 0.047, M 0.037 ± 0.056, F 0.009 ± 0.073, R 0.046 ± 0.04, T 0.045 ± 0.038, V -0.106 ± 0.038, C -0.065 ± 0.066
M14: L -0.167 ± 0.042, P -0.007 ± 0.05, W -0.352 ± 0.062, A -0.098 ± 0.057, I -0.082 ± 0.12, V -0.085 ± 0.051, K 0.064 ± 0.057, Q -0.036 ± 0.053, C -0.104 ± 0.072, T 0.069 ± 0.045, E -0.073 ± 0.07, S 0.098 ± 0.04, H -0.33 ± 0.16, D 0.039 ± 0.086, F -0.067 ± 0.072, R -0.154 ± 0.059, G -0.187 ± 0.054, Y 0.082 ± 0.077
E4: G -0.234 ± 0.059, T -0.111 ± 0.047, Y -0.275 ± 0.1, L -0.322 ± 0.039, K -0.239 ± 0.063, H -0.363 ± 0.1, A -0.15 ± 0.039, P -0.145 ± 0.045, C -0.353 ± 0.073, V -0.223 ± 0.045, I -0.289 ± 0.097, M -0.242 ± 0.054, N -0.15 ± 0.08, Q -0.099 ± 0.053, F -0.208 ± 0.061, D -0.132 ± 0.063, S -0.185 ± 0.048
R2: I 0.048 ± 0.065, P 0.015 ± 0.068, E 0.067 ± 0.083, L -0.363 ± 0.053, Y -0.513 ± 0.095, H -0.319 ± 0.088, C -0.229 ± 0.092, K 0.101 ± 0.058, M -0.012 ± 0.051, G -0.077 ± 0.073, A -0.096 ± 0.06, Q -0.028 ± 0.071, D 0.001 ± 0.14, T -0.115 ± 0.049, V -0.187 ± 0.057
D16: R 0.015 ± 0.037, I 0.042 ± 0.073, Y 0.192 ± 0.087, G 0.137 ± 0.049, P -0.129 ± 0.053, M -0.089 ± 0.059, T 0.115 ± 0.043, L -0.271 ± 0.038, S 0.193 ± 0.036, A 0.098 ± 0.056, K 0.056 ± 0.068, C 0.053 ± 0.067, W -0.013 ± 0.047, E 0.047 ± 0.06, V -0.036 ± 0.038, H 0.076 ± 0.094, N 0.253 ± 0.088, F 0.145 ± 0.055
C15: M -0.507 ± 0.069, I -0.626 ± 0.14, V -0.587 ± 0.055, Q -0.55 ± 0.12, H -0.418 ± 0.13, A -0.394 ± 0.062, D -0.691 ± 0.17, P -0.454 ± 0.084, K -0.649 ± 0.063, S -0.377 ± 0.054, L -0.531 ± 0.053, N -0.592 ± 0.13, W -0.759 ± 0.11, R -0.606 ± 0.057, Y -0.519 ± 0.12, G -0.531 ± 0.054, F -0.588 ± 0.073

Variants of: B2
Assay: as above
Details: Homo sapiens

Abundance fitness: each site, then its substitutions
S78: Y -0.008 ± 0.19, M -0.256 ± 0.23, Q -0.158 ± 0.17, K 0.164 ± 0.13, T 0.087 ± 0.11, D 0.212 ± 0.16, E -0.045 ± 0.12, R -0.032 ± 0.082, W -0.189 ± 0.14, F -0.199 ± 0.17, V 0.021 ± 0.079, L 0.091 ± 0.11, A -0.023 ± 0.096, N 0.256 ± 0.28, P -0.019 ± 0.1, C 0.08 ± 0.16, G 0.153 ± 0.073
S76: H -0.196 ± 0.18, V -0.015 ± 0.053, C -0.341 ± 0.21, T 0.103 ± 0.09, A -0.096 ± 0.062, L -0.112 ± 0.074, W -0.495 ± 0.11, K 0.12 ± 0.085, D 0.089 ± 0.082, R 0.058 ± 0.054, P 0.099 ± 0.079, I -0.426 ± 0.21, G 0.062 ± 0.043, Q 0.106 ± 0.11, M 0.012 ± 0.091
D75: S 0.138 ± 0.072, K -0.207 ± 0.15, R -0.077 ± 0.061, Q 0.165 ± 0.12, M -0.4 ± 0.18, H 0.395 ± 0.32, P 0.178 ± 0.15, E 0.109 ± 0.078, V -0.115 ± 0.069, Y 0.151 ± 0.29, I -0.038 ± 0.15, W -0.262 ± 0.11, T -0.274 ± 0.15, L -0.214 ± 0.08
S77: P 0.071 ± 0.069, G 0.159 ± 0.036, C -0.165 ± 0.075, F -0.243 ± 0.098, A 0.065 ± 0.041, M -0.029 ± 0.065, D 0.036 ± 0.064, T 0.061 ± 0.061, R -0.022 ± 0.039, Y 0.044 ± 0.087, I -0.113 ± 0.12, E 0.002 ± 0.054, K 0.096 ± 0.063, L -0.098 ± 0.045, V 0.045 ± 0.039, Q 0.106 ± 0.056, W -0.19 ± 0.059, H 0.054 ± 0.082, N -0.141 ± 0.11
